The source of these data is publication PMC5690661, “The PrpF protein of Shewanella oneidensis MR-1 catalyzes the isomerization of 2-methyl-cis-aconitate during the catabolism of propionate via the AcnD-dependent 2-methylcitric acid cycle” (PLoS ONE, 2017).

Data set [1] relates to C/C(C(=O)O)=C(\CC(=O)O)C(=O)O. Briefly: purified protein. Particulars: Tris-HCl 50 mM pH 8.0, KCl 100 mM, 37°C, Fe/S-reactivated enzyme.
For data set [2], the target named is T1, SePrpD (Salmonella enterica, UniProt P74840).
T1 construct: gene prpD; recombinant, His-tagged, purified from E. coli
T1 sequence (P74840 1-483): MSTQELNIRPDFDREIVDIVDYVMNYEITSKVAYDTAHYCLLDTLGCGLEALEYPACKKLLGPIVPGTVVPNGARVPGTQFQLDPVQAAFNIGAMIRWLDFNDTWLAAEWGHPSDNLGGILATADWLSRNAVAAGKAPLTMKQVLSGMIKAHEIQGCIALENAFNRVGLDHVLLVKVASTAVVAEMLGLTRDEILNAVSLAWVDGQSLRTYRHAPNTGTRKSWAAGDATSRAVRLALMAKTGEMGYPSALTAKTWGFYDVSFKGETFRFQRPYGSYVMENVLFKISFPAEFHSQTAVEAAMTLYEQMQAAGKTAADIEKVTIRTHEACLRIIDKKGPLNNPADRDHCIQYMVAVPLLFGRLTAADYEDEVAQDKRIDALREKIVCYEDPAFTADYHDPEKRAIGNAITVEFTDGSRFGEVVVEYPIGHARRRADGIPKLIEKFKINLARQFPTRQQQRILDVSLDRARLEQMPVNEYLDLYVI
The experiment in a line: HPLC of reaction products. It counts as biochemical. Particulars: 5 mM substrate, Tris-HCl 90 mM pH 8.0, 37°C, 1.5 h.

In data set [3] the target is T2, SoPrpF (Shewanella oneidensis, UniProt Q8EJW4).
T2 construct: gene prpF; recombinant from pPRP196 (pTEV4, N-terminal TEV-cleavable H6 tag), purified as in earlier work; homodimer
T2 sequence (Q8EJW4 whole entry): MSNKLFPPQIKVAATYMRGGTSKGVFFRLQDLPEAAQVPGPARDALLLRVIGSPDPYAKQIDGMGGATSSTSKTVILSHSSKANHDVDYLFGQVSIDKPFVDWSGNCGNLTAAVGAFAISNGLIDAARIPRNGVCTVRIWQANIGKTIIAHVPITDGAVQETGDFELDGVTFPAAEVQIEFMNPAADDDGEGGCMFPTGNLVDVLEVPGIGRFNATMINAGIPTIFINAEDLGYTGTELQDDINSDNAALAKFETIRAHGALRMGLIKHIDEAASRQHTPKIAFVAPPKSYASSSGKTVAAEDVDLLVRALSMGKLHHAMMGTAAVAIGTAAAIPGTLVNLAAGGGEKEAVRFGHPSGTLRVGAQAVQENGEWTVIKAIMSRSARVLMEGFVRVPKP
The experiment in a line: HPLC time course; coupled aconitase assay. It is filed as biochemical. Particulars: substrate is the SoAcnD product of 2-methylcitrate; Tris-HCl 50 mM pH 8.0, KCl 100 mM.

Substrate in data set [4]: O=C(O)/C=C(/CC(=O)O)C(=O)O
The experiment in a line: purified protein. The note with it: Tris-HCl 50 mM pH 8.0, KCl 100 mM, 37°C, Fe/S-reactivated enzyme.

Data set [5] concerns the molecule itself. The experiment in a line: crystal structure; hanging drop vapor diffusion, MES 100 mM pH 6.0, sodium malonate 136 mM, PEG 4K 15% w/v, room temperature; space group P2(1), two chains in the asymmetric unit related by a non-crystallographic twofold axis; 1.22 Å.

In the case of “SeAcnB (Salmonella enterica subsp. enterica serovar Typhimurium str. LT2)”, in data set [1], the Km came to 208 ± 39 µM, the maximum rate (Vmax) was found to be 10 µM/min, the turnover number (kcat) stood at 6.6 ± 0.667 s⁻¹ and the kcat/Km was 31700 M⁻¹ s⁻¹.

With `CC(C(=O)O)C(O)(CC(=O)O)C(=O)O` (stereo not shown) [2-methylcitrate], the “HPLC of reaction products” value in data set [2] was “SePrpD synthesized 2-methyl-cis-aconitate from 2-methylcitrate”.

Turning to `C/C(C(=O)O)=C(\CC(=O)O)C(=O)O` [2-methyl-cis-aconitate], in data set [3], the “HPLC time course; coupled aconitase assay” value was “SoPrpF converted the SoAcnD reaction product into 2-methyl-cis-aconitate over time”.

As to “SeAcnA (Salmonella enterica subsp. enterica serovar Typhimurium str. LT2)”, in data set [1], the Km stood at 210 ± 35 µM, the Vmax came to 50 µM/min, the kcat was determined as 11.8 ± 0.7 s⁻¹ and the catalytic efficiency (kcat/Km) was 56700 M⁻¹ s⁻¹.

B1: SeAcnA (Salmonella enterica subsp. enterica serovar Typhimurium str. LT2) (protein)
chain: MSSTLREASKDTLQAKDKTYHYYSLPLAAKSLGDIARLPKSLKVLLENLLRWQDGESVTDEDIQALAGWLKNAHADREIAWRPARVLMQDFTGVPAVVDLAAMREAVKRLGGDTSKVNPLSPVDLVIDHSVTVDHFGDDDAFEENVRLEMERNHERYMFLKWGKQAFSRFSVVPPGTGICHQVNLEYLGKAVWSELQDGEWIAYPDSLVGTDSHTTMINGLGVLGWGVGGIEAEAAMLGQPVSMLIPDVVGFKLTGKLREGITATDLVLTVTQMLRKHGVVGKFVEFYGDGLDSLPLADRATIANMSPEYGATCGFFPIDAITLEYMRLSGRSDDLVELVETYAKAQGMWRNPGDEPVFTSTLELDMGDVEASLAGPKRPQDRVALGDVPKAFAASAELELNTAQRDRQPVDYTMNGQPYQLPDGAVVIAAITSCTNTSNPSVLMAAGLLAKKAVTLGLKRQPWVKASLAPGSKVVSDYLAQAKLTPYLDELGFNLVGYGCTTCIGNSGPLPEPIETAIKKGDLTVGAVLSGNRNFEGRIHPLVKTNWLASPPLVVAYALAGNMNINLATDPLGYDRKGDPVYLKDIWPSAQEIARAVELVSSDMFRKEYAEVFEGTEEWKSIQVESSDTYGWQSDSTYIRLSPFFDEMQAQPAPVKDIHGARILAMLGDSVTTDHISPAGSIKPDSPAGRYLQNHGVERKDFNSYGSRRGNHEVMMRGTFANIRIRNEMLPGVEGGMTRHLPGTEAMSIYDAAMLYQQEKTPLAVIAGKEYGSGSSRDWAAKGPRLLGIRVVIAESFERIHRSNLIGMGILPLEFPQGVTRKTLGLTGEEVIDIADLQNLRPGATIPVTLTRSDGSKETVPCRCRIDTATELTYYQNDGILHYVIRNMLN
As to B1, in data set [4], the Km is 22 ± 2 µM, the Vmax came out at 86 µM/min, the kcat worked out at 62.3 ± 1.45 s⁻¹ and the specificity constant (kcat/Km) came to 2.83e+06 M⁻¹ s⁻¹.

B2: Shewanella oneidensis MR-1 PrpF K73E variant (SoPrpF^K73E) (enzyme)
chain: MSNKLFPPQIKVAATYMRGGTSKGVFFRLQDLPEAAQVPGPARDALLLRVIGSPDPYAKQIDGMGGATSSTSETVILSHSSKANHDVDYLFGQVSIDKPFVDWSGNCGNLTAAVGAFAISNGLIDAARIPRNGVCTVRIWQANIGKTIIAHVPITDGAVQETGDFELDGVTFPAAEVQIEFMNPAADDDGEGGCMFPTGNLVDVLEVPGIGRFNATMINAGIPTIFINAEDLGYTGTELQDDINSDNAALAKFETIRAHGALRMGLIKHIDEAASRQHTPKIAFVAPPKSYASSSGKTVAAEDVDLLVRALSMGKLHHAMMGTAAVAIGTAAAIPGTLVNLAAGGGEKEAVRFGHPSGTLRVGAQAVQENGEWTVIKAIMSRSARVLMEGFVRVPKP
notes: PrpF (2-methylaconitate isomerase) of Shewanella oneidensis MR-1, with the substitution K73E; prpF+ cloned into pTEV4 (template pPRP196); also called Apo-SoPrpF^K73E; prpF258; source: E. coli, plasmid pPRP221 (pTEV4), IPTG-induced, purified (Maxwell 16 system)
With B2, the binding result in data set [5] is listed as “binds”.

B3: SeAcnB (Salmonella enterica subsp. enterica serovar Typhimurium str. LT2) (protein)
chain: MLEEYRKHVAERAAQGIVPKPLDATQMAALVELLKTPPVGEEEFLLDLLINRVPPGVDEAAYVKAGFLAAVAKGDTTSPLVSPEKAIELLGTMQGGYNIHPLIDALDDAKLAPIAAKALSHTLLMFDNFYDVEEKAKAGNEYAKQVMQSWADAEWFLSRPPLAEKITVTVFKVTGETNTDDLSPAPDAWSRPDIPLHAQAMLKNAREGIEPDQPGVVGPIKQIEALQKKGYPLAYVGDVVGTGSSRKSATNSVLWFMGDDIPNVPNKRGGGLCLGGKIAPIFFNTMEDAGALPIEVDVSNLNMGDVIDVYPYKGEVRNHETGELLATFELKTDVLIDEVRAGGRIPLIIGRGLTTKAREALGLPHSDVFRQAKDVAESSRGFSLAQKMVGRACGVKGIRPGAYCEPKMTSVGSQDTTGPMTRDELKDLACLGFSADLVMQSFCHTAAYPKPVDVTTHHTLPDFIMNRGGVSLRPGDGVIHSWLNRMLLPDTVGTGGDSHTRFPIGISFPAGSGLVAFAAATGVMPLDMPESVLVRFKGKMQPGITLRDLVHAIPLYAIKQGLLTVEKKGKKNIFSGRILEIEGLPDLKVEQAFELTDASAERSAAGCTIKLNKEPIVEYLTSNIVLLKWMIAEGYGDRRTLERRIQGMEKWLADPQLLEADADAEYAAVIDIDLADIKEPILCAPNDPDDARLLSDVQGEKIDEVFIGSCMTNIGHFRAAGKLLDNHKGQLPTRLWVAPPTRMDAAQLTEEGYYSVFGKSGARIEIPGCSLCMGNQARVADGATVVSTSTRNFPNRLGTGANVFLASAELAAVAALIGKLPTPEEYQTYVAQVDKTAVDTYRYLNFDQLSQYTEKADGVIFQTAV
Turning to B3, in data set [4], the Km was found to be 17 ± 3 µM, the maximal velocity (Vmax) stood at 21 µM/min, the kcat was found to be 34.9 ± 1.67 s⁻¹ and the kcat/Km stood at 2.05e+06 M⁻¹ s⁻¹.

What is called Km is the concentration of substrate that gives half-maximal velocity. Broadly, the Vmax is the rate approached at saturating substrate. Usually kcat stands for the maximal rate divided by the concentration of active sites. In general, kcat/Km refers to the second-order rate constant that governs catalysis at low substrate concentration.
